Data reported in paper PMC2553570.
Where two headings read alike, the source gives them in different places.

Assays:
Experiment in all cases: EMSA
Ku70/80 wild-type [1] = biological target: T1, Ku70/80 wild-type (human, UniProt P12956;P13010 1-609;1-732)
Ku70/80TM [2] = biological target: T2, Ku70/80TM (human, UniProt P12956;P13010 1-609;1-732, K238A;K239A;Ku80:K233A)
Ku70/80DM = Ku70/80DM (human, UniProt P12956;P13010 1-609;1-732, K239A;Ku80:K238A)
Ku70DM/80TM [3] = biological target: T3, Ku70DM/80TM (human, UniProt P12956;P13010 1-609;1-732, K357A;K358A;K233A;K238A;K239A)
Ku70DM/80DM [4] = biological target: T4, Ku70DM/80DM (human, UniProt P12956;P13010 1-609;1-732, K357A;K358A;K238A;K239A)
Ku70DM/80 [5] = biological target: T5, Ku70DM/80 (human, UniProt P12956;P13010 1-609;1-732, K358A;Ku70:K357A)
Ku70/80TM [6] = biological target: T2, Ku70/80TM; remark: listed apart in the source
Ku70DM/80TM [7] = biological target: T3, Ku70DM/80TM; remark: listed apart in the source
Ku70DM/80DM [8] = biological target: T4, Ku70DM/80DM; remark: listed apart in the source
Ku70DM/80 [9] = biological target: T5, Ku70DM/80; remark: listed apart in the source
Ku70/80 wild-type [10] = biological target: T1, Ku70/80 wild-type; remark: listed apart in the source

Measured: binding result

T5 sequence (P12956 whole entry K358A, chain 1 of 2): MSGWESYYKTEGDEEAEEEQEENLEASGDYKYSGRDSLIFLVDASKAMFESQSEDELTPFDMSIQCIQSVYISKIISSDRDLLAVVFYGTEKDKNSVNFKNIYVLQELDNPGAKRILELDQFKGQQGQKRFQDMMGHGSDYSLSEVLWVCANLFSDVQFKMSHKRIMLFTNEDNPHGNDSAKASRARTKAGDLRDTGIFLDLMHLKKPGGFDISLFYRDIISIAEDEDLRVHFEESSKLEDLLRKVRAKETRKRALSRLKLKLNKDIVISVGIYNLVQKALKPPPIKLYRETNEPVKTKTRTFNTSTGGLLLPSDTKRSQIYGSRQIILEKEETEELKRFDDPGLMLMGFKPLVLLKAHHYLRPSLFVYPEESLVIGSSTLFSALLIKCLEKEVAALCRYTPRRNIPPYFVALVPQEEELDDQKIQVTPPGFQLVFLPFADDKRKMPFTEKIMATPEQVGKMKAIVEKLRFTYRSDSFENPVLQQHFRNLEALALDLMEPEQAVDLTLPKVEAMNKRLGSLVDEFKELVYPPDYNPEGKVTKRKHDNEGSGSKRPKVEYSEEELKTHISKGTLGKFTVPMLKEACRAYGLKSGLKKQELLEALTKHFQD
T5 sequence (P13010 whole entry, stated change not applied, chain 2 of 2): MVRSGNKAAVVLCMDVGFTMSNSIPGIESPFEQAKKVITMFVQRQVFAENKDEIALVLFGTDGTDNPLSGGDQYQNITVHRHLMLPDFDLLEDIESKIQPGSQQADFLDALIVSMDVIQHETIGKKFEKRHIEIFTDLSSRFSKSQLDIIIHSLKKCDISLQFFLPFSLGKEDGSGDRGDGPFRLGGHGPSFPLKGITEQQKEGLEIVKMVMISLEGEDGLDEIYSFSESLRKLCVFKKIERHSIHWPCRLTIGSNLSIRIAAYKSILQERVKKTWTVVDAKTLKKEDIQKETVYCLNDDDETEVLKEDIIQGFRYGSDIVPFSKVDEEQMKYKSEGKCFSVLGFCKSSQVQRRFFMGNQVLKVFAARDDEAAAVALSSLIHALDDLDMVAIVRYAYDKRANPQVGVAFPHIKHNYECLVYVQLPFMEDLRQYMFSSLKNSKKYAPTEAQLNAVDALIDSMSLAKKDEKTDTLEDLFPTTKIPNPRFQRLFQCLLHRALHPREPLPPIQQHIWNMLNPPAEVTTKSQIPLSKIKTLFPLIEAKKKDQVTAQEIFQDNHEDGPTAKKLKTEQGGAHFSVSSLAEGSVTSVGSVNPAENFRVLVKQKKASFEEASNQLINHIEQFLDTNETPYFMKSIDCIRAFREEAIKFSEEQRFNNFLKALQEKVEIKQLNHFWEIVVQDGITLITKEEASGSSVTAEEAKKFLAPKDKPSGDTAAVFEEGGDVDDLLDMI
T1 sequence (P12956 whole entry, chain 1 of 2): as the sequence (P12956 whole entry K358A, chain 1 of 2) above, with A358K counted along it
T1 sequence (P13010 whole entry, chain 2 of 2): as the sequence (P13010 whole entry, stated change not applied, chain 2 of 2) above
T2 sequence (P12956 whole entry, stated change not applied, chain 1 of 2): as the sequence (P12956 whole entry K358A, chain 1 of 2) above, with A358K counted along it
T2 sequence (P13010 whole entry K238A/K239A, chain 2 of 2): as the sequence (P13010 whole entry, stated change not applied, chain 2 of 2) above, with K238A, K239A counted along it
T4 sequence (P12956 whole entry K357A/K358A, chain 1 of 2): as the sequence (P12956 whole entry K358A, chain 1 of 2) above, with K357A counted along it
T4 sequence (P13010 whole entry K238A/K239A, chain 2 of 2): as the sequence (P13010 whole entry, stated change not applied, chain 2 of 2) above, with K238A, K239A counted along it
T3 sequence (P12956 whole entry K357A/K358A, chain 1 of 2): as the sequence (P12956 whole entry K358A, chain 1 of 2) above, with K357A counted along it
T3 sequence (P13010 whole entry K233A/K238A/K239A, chain 2 of 2): as the sequence (P13010 whole entry, stated change not applied, chain 2 of 2) above, with K233A, K238A, K239A counted along it
Sequence of Ku70/80DM (P12956 whole entry, stated change not applied, chain 1 of 2): as the sequence (P12956 whole entry K358A, chain 1 of 2) above, with A358K counted along it
Sequence of Ku70/80DM (P13010 whole entry K239A, chain 2 of 2): as the sequence (P13010 whole entry, stated change not applied, chain 2 of 2) above, with K239A counted along it

B1: 48-bp duplex (two-Ku) (dsDNA)
DNA 1: CTGAGAAAACTGTGCGTCTTCGCGGCAATTGAGAGGCATTCCATTCAC
DNA 2: GTGAATGGAATGCCTCTCAATTGCCGCGAAGACGCACAGTTTTCTCAG
binds: Ku70/80 wild-type [1] | Ku70/80TM [2] | Ku70/80DM | Ku70DM/80TM [3] | Ku70DM/80DM [4] | Ku70DM/80 [5]

B2: one-Ku duplex with unpaired region (dsDNA)
DNA 1: GTTTTTAGTTTATTGGGCGCG
DNA 2: CGCGCCCAGCTTTCCCAGCTAATAAACTAAAAAC
binds: Ku70/80TM [6] | Ku70DM/80TM [7] | Ku70DM/80DM [8] | Ku70DM/80 [9] | Ku70/80 wild-type [10]
